The target in assay [1] is T1, soluble TACI protein, fluorescently labeled (UniProt O14836 1-165, limits assumed, fluorescent label (not specified)).
T1 construct: Labeled soluble protein used to stain CAR T cells in flow cytometry; also called sTACI; fluorescent TACI
T1 sequence (looked up): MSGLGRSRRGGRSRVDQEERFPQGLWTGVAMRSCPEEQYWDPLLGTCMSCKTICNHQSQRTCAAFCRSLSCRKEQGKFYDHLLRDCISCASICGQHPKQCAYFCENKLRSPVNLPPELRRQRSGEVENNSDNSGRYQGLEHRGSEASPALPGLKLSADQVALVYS
In words: flow cytometry, fluorescent soluble TACI titrated 0.01 to 1000 nM on CAR T cells, MFI relative to untransduced cells (panel Amount of soluble TACI binding), N=3. An excerpt:
(§1) The top two plots show binding of fluorescent BCMA and the bottom two plots show binding of fluorescent TACI to anti-TACI H-L CAR, anti-TACI L-H CAR, anti-BCMA, anti-TACI/anti-BCMA bispecific CAR, anti-BCMA/anti-TACI bispecific CAR, or untransduced T cells. The two left plots show the percentage of cells positive for BCMA or TACI. The two right plots show median fluorescence intensity for each cell population relative to untransduced cells.
(§2) To test the efficacy of bispecific CAR T cells to bind their respective antigens, T cells were either left untransduced, or transduced with anti-TACI H-L CAR, anti-TACI L-H CAR, anti-BCMA CAR, anti-TACI/anti-BCMA bispecific CAR, or anti-BCMA/anti-TACI bispecific CAR, and were tested for their binding of soluble antigens.
(In general: A flow cytometer gives signals particle by particle.)

The next assay addresses T2, soluble BCMA, labeled (UniProt Q02223 1-54, fluorescent label (not specified)).
T2 construct: Labeled soluble protein used to stain CAR T cells in flow cytometry; also called sBCMA; fluorescent BCMA
T2 sequence (looked up): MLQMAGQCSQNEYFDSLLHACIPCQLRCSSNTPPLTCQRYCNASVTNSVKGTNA
In words: flow cytometry, labeled soluble BCMA (8 to 1000 ng) on CAR T cells, gated on live CAR T cells. How it is done: The anti-BCMA, anti-TACI (H/L), and anti-TACI (L/H) CAR T cells were evaluated for their capabilities to bind to soluble TACI (sTACI), soluble BCMA (sBCMA), and soluble APRIL (sAPRIL) was determined. T cells were washed 4 times in PBS 4% BSA, and incubated with labeled protein on ice at 4° C. for 40 min. After incubation, cells were washed twice with FACS buffer and flow cytometry was performed gating on live, CAR T cells to calculate protein binding. As evident in FIG. 12A, anti-TACI (L/H) CAR T cells have higher binding efficiency to soluble TACI than anti-TACI (H/L) CAR T cells.

Assay [2] concerns the target T1, soluble TACI protein, fluorescently …. Kind of assay: flow cytometry, fluorescent soluble TACI titrated 0.01 to 1000 nM on CAR T cells, percentage TACI+ (panel Soluble binding of TACI), N=3.
Source text: as §1, §2

For assay [3] the target is unchanged. Kind of assay: flow cytometry, fluorescent soluble TACI titrated 0.01 to 1000 nM on CAR T cells, MFI relative to untransduced cells, N=3. How it is done: (§3) FIGS. 25A-25B show measurements of binding of soluble TACI protein to untransduced T cells, and to T cells expressing anti-TACI H-L, anti-TACI L-H, or anti-BCMA. Cells were incubated with fluorescent soluble TACI protein at various concentrations, after which fluorescence of the cells was measured using flow cytometry, represented as percentage of cells positive for TACI (FIG. 25A) or as median fluorescence intensity (MFI) relative to signal measured in untransduced cells (FIG. 25B).
(§4) To evaluate the expression, binding efficacy, and binding specificity of anti-TACI CARs, normal donor T cells were transduced with anti-TACI H-L, anti-TACI L-H, or anti-BCMA and transduction efficiency was evaluated by measuring the percentage of each T cell population positive for mCherry expression by flow cytometry. […] To compare binding efficiency and specificity of different CARs, T cells expressing each CAR construct were incubated with fluorescently-labeled soluble TACI and analyzed by flow cytometry.

For assay [4] the target is unchanged. In words: flow cytometry, fluorescent soluble TACI titrated 0.01 to 1000 nM on CAR T cells, percentage TACI+, N=3. How it is done:
as §3, §4

In assay [5] the target is T3, his-tagged recombinant TACI (UniProt O14836 1-165, limits assumed).
T3 construct: Analyte in the SPR assay; also called TNFRSF13B; not shown: his tag
T3 sequence (looked up): T1 sequence (looked up)
In words: SPR; antibody captured on anti-mouse IgG chip, his-tagged recombinant TACI as analyte. How it is done:
The antibodies were analyzed by surface plasmon resonance according to the following procedure (FIG. 2). The binding of his-tagged recombinant TACI to anti-TACI antibody was captured to 120 RU (for TACI) on anti-mouse IgG.

Experimental findings from patent US20220324964A1 (GENERAL HOSPITAL, published 2022) are described below.

In general, EC50 (read off the curve) refers to the concentration giving half of the maximal effect. The low end stands for higher potency in that assay, the high end for lower potency in that assay. For orientation: Kd means the constant that tells how readily two partners part at equilibrium. As a reminder, the koff is the rate constant with which the complex falls apart. The kon is the second-order rate constant of association.

B1: Anti-TACI (H/L) CAR expressed on T cells (other)
chain: EVQLQQSGPELVKPGASVKISCKTSGYTFTESTIHWVKQSHGKSLEWIGGISPNNGGSPFNQKFKGKATLTVDKSSSTVYMELRSLSSEDSAVYYCAKWVRGAMDFWGQGTSVTVSSGGGGSGGGGSGGGGSGGGGSDIVLTQSPASLAVSLGQRATISCRASESVDYYGMSLMNWFQQKPGQPPKLVIYAASNQGSGVPARFSGSGSGTDFRLNIHPLEEDDTGMYFCQQSKEAPPTFGGGTKLEIKTTTPAPRPPTPAPTIASQPLSLRPEACRPAAGGAVHTRGLDFACDIYIWAPLAGTCGVLLLSLVITLYCKRGRKKLLYIFKQPFMRPVQTTQEEDGCSCRFPEEEEGGCELRVKFSRSADAPAYQQGQNQLYNELNLGRREEYDVLDKRRGRDPEMGGKPRRKNPQEGLYNELQKDKMAEAYSEIGMKGERRRGKGHDGLYQGLSTATKDTYDALHMQALPPR
notes: Chimeric antigen receptor: anti-TACI scFv VH-(G4S)4-VL, CD8 hinge/TM, 4-1BB, CD3zeta; The vector also expresses mCherry; also called Anti-TACI CAR (H-L)
Take B1: the “EC50 (read off the curve)” value in assay [1] was approximately 8 nM; in assay [2], approximately 2 nM; in assay [3] it was approximately 8 nM; in assay [4], approximately 2 nM. Moreover, in the assay with soluble BCMA, labeled, the binding result was “no binding (tested: 1000 ng)”.

B2: anti-TACI antibody (monoclonal antibody from hybridoma, Example 1) (antibody, V domains shown)
VH: EVQLQQSGPELVKPGASVKISCKTSGYTFTESTIHWVKQSHGKSLEWIGGISPNNGGSPFNQKFKGKATLTVDKSSSTVYMELRSLSSEDSAVYYCAKWVRGAMDFWGQGTSVTVSS
VL: not shown
notes: also called anti-TACI mAb
For B2, in assay [5], the Kd worked out at 0.861 nM, the koff worked out at 0.00121 s⁻¹ and the kon was 1.41e+06 M⁻¹ s⁻¹.
